In publication PMC5727259, “Voltage-gated sodium channels assemble and gate as dimers” (Nature Communications, 2017):

B1: GFP-tagged chloride channel ClC-3 (natural protein, UniProt P51790 1-818, looked up)
chain: MESEQLFHRGYYRNSYNSITSASSDEELLDGAGVIMDFQTSEDDNLLDGDTAVGTHYTMTNGGSINSSTHLLDLLDEPIPGVGTYDDFHTIDWVREKCKDRERHRRINSKKKESAWEMTKSLYDAWSGWLVVTLTGLASGALAGLIDIAADWMTDLKEGICLSALWYNHEQCCWGSNETTFEERDKCPQWKTWAELIIGQAEGPGSYIMNYIMYIFWALSFAFLAVSLVKVFAPYACGSGIPEIKTILSGFIIRGYLGKWTLMIKTITLVLAVASGLSLGKEGPLVHVACCCGNIFSYLFPKYSTNEAKKREVLSAASAAGVSVAFGAPIGGVLFSLEEVSYYFPLKTLWRSFFAALVAAFVLRSINPFGNSRLVLFYVEYHTPWYLFELFPFILLGVFGGLWGAFFIRANIAWCRRRKSTKFGKYPVLEVIIVAAITAVIAFPNPYTRLNTSELIKELFTDCGPLESSSLCDYRNDMNASKIVDDIPDRPAGIGVYSAIWQLCLALIFKIIMTVFTFGIKVPSGLFIPSMAIGAIAGRIVGIAVEQLAYYHHDWFIFKEWCEVGADCITPGLYAMVGAAACLGGVTRMTVSLVVIVFELTGGLEYIVPLMAAVMTSKWVGDAFGREGIYEAHIRLNGYPFLDAKEEFTHTTLAADVMRPRRNDPPLAVLTQDNMTVDDIENMINETSYNGFPVIMSKESQRLVGFALRRDLTIAIESARKKQEGIVGSSRVCFAQHTPSLPAESPRPLKLRSILDMSPFTVTDHTPMEIVVDIFRKLGLRQCLVTHNGRLLGIITKKDILRHMAQTANQDPASIMFN
notes: chloride channel ClC-3 from plasmid pCLC3sGFP (Addgene); also called ClC-3-GFP; pCLC3sGFP; source: HEK293, transfected, in lysate (CHAPS buffer)
B2: transient outward potassium channel Kv4.3 tagged with GFP (natural protein, UniProt Q9UK17 1-655, looked up)
chain: MAAGVAAWLPFARAAAIGWMPVANCPMPLAPADKNKRQDELIVLNVSGRRFQTWRTTLERYPDTLLGSTEKEFFFNEDTKEYFFDRDPEVFRCVLNFYRTGKLHYPRYECISAYDDELAFYGILPEIIGDCCYEEYKDRKRENAERLMDDNDSENNQESMPSLSFRQTMWRAFENPHTSTLALVFYYVTGFFIAVSVITNVVETVPCGTVPGSKELPCGERYSVAFFCLDTACVMIFTVEYLLRLFAAPSRYRFIRSVMSIIDVVAIMPYYIGLVMTNNEDVSGAFVTLRVFRVFRIFKFSRHSQGLRILGYTLKSCASELGFLLFSLTMAIIIFATVMFYAEKGSSASKFTSIPASFWYTIVTMTTLGYGDMVPKTIAGKIFGSICSLSGVLVIALPVPVIVSNFSRIYHQNQRADKRRAQKKARLARIRVAKTGSSNAYLHSKRNGLLNEALELTGTPEEEHMGKTTSLIESQHHHLLHCLEKTTGLSYLVDDPLLSVRTSTIKNHEFIDEQMFEQNCMESSMQNYPSTRSPSLSSHPGLTTTCCSRRSKKTTHLPNSNLPATRLRSMQELSTIHIQGSEQPSLTTSRSSLNLKADDGLRPNCKTSQITTAIISIPTPPALTPEGESRPPPASPGPNTNIPSIASNVVKVSAL
notes: potassium channel Kv4.3 from plasmid pcDNA3.1-Kv4.3-GFP; also called Kv4.3-GFP; pcDNA3.1-Kv4.3-GFP; source: HEK293, transfected, in lysate (CHAPS buffer)

Molecular target: the molecule itself
Experiment: single-molecule pull-down (SiMPull) with GFP photobleaching step counting; lysate of transfected HEK293 cells (0.4% CHAPS buffer) perfused over anti-GFP antibody on passivated coverslips; low surface density (0.05 molecules/µm^2); TIRF imaging

Protein	stoichiometry N
B1	2
B2	4
